# Measured values from the Human Domainome abundance scans (Beltran et al. 2025).
# ± gives the uncertainty stated by the source.
# B1: Friend leukemia integration 1 transcription factor, residues 116 to 197; numbered along this chain, Q01543 (parent)
# chain: NMTTNERRVIVPADPTLWTQEHVRQWLEWAIKEYSLMEIDTSFFQNMDGKELCKMNKEDFLRATTLYNTEVLLSHLSYLRES
# Variants of: B1
# Assay: abundance fitness (aPCA) (normalised: wild type 0, dead -1); higher = more abundant; growth selection in yeast, the domain comes from the species named
# Settings: Homo sapiens
row,Variant,abundance fitness
1,NMTTNERRVIVPADPTLWTQEHVRQWLEWAIKEYSLMEIDTSFFQNMDGKELCKMNKEDFLRLTTLYNTEVLLSHLSYLRES [A63L],0.022 ± 0.055
2,NMTTNERRVIVPADPTLWTQEHVRQWLEWAIKEYSLMEIDTSFFQNMDGKELCKMNKEDFLRRTTLYNTEVLLSHLSYLRES [A63R],-0.041 ± 0.048
3,NMTTNERRVIVPADPTLWTQEHVRQWLEWAIKEYSLMEIDTSFFQNMDGKELCKMNKEDFLRGTTLYNTEVLLSHLSYLRES [A63G],0.018 ± 0.052
4,NMTTNERRVIVPADPTLWTQEHVRQWLEWAIKEYSLMEIDTSFFQNMDGKELCKMNKEDFLRETTLYNTEVLLSHLSYLRES [A63E],-0.213 ± 0.087
5,NMTTNERRVIVPADPTLWTQEHVRQWLEWAIKEYSLMEIDTSFFQNMDGKELCKMNKEDFLRVTTLYNTEVLLSHLSYLRES [A63V],0.003 ± 0.062
6,NMTTNERRVIVPADPTLWTQEHVRQWLEWAIKEYSLMEIDTSFFQNMDGKELCKMNKEDFLRHTTLYNTEVLLSHLSYLRES [A63H],-0.161 ± 0.12
7,NMTTNERRVIVPADPTLWTQEHVRQWLEWAIKEYSLMEIDTSFFQNMDGKELCKMNKEDFLRTTTLYNTEVLLSHLSYLRES [A63T],-0.106 ± 0.083
8,NMTTNERRVIVPADPTLWTQEHVRQWLEWAIKEYSLMEIDTSFFQNMDGKELCKMNKEDFLRDTTLYNTEVLLSHLSYLRES [A63D],0.012 ± 0.32
9,NMTTNERRVIVPADPTLWTQEHVRQWLEWAIKEYSLMEIDTSFFQNMDGKELCKMNKEDFLRMTTLYNTEVLLSHLSYLRES [A63M],0.024 ± 0.079
10,NMTTNERRVIVPADPTLWTQEHVRQWLEWAIKEYSLMEIDTSFFQNMDGKELCKMNKEDFLRNTTLYNTEVLLSHLSYLRES [A63N],0.36 ± 0.23
11,NMTTNERRVIVPADPTLWTQEHVRQWLEWAIKEYSLMEIDTSFFQNMDGKELCKMNKEDFLRFTTLYNTEVLLSHLSYLRES [A63F],-0.123 ± 0.16
12,NMTTNERRVIVPADPTLWTQEHVRQWLEWAIKEYSLMEIDTSFFQNMDGKELCKMNKEDFLRWTTLYNTEVLLSHLSYLRES [A63W],0.002 ± 0.077
13,NMTTNERRVIVPADPTLWTQEHVRQWLEWAIKEYSLMEIDTSFFQNMDGKELCKMNKEDFLRKTTLYNTEVLLSHLSYLRES [A63K],-0.089 ± 0.1
14,NMTTNERRVIVPADPTLWTQEHVRQWLEWAIKEYSLMEIDTSFFQNMDGKELCKMNKEDFLRPTTLYNTEVLLSHLSYLRES [A63P],-0.954 ± 0.15
15,NMTTNERRVIVPADPTLWTQEHVRQWLEWAIKEYSLMEIDTSFFQNMDGKELCKMNKEDFLRYTTLYNTEVLLSHLSYLRES [A63Y],0.085 ± 0.19
16,NMTTNERRVIVPADPTLWTQEHVRQWLEWAIKEYSLMEIDTSFFQNMDGKELCKMNKEDFHRATTLYNTEVLLSHLSYLRES [L61H],-0.36 ± 0.38
17,NMTTNERRVIVPADPTLWTQEHVRQWLEWAIKEYSLMEIDTSFFQNMDGKELCKMNKEDFGRATTLYNTEVLLSHLSYLRES [L61G],-0.236 ± 0.069
18,NMTTNERRVIVPADPTLWTQEHVRQWLEWAIKEYSLMEIDTSFFQNMDGKELCKMNKEDFARATTLYNTEVLLSHLSYLRES [L61A],-0.13 ± 0.071
19,NMTTNERRVIVPADPTLWTQEHVRQWLEWAIKEYSLMEIDTSFFQNMDGKELCKMNKEDFFRATTLYNTEVLLSHLSYLRES [L61F],-0.307 ± 0.13
20,NMTTNERRVIVPADPTLWTQEHVRQWLEWAIKEYSLMEIDTSFFQNMDGKELCKMNKEDFCRATTLYNTEVLLSHLSYLRES [L61C],-0.396 ± 0.15
21,NMTTNERRVIVPADPTLWTQEHVRQWLEWAIKEYSLMEIDTSFFQNMDGKELCKMNKEDFSRATTLYNTEVLLSHLSYLRES [L61S],-0.105 ± 0.07
22,NMTTNERRVIVPADPTLWTQEHVRQWLEWAIKEYSLMEIDTSFFQNMDGKELCKMNKEDFNRATTLYNTEVLLSHLSYLRES [L61N],-0.371 ± 0.12
23,NMTTNERRVIVPADPTLWTQEHVRQWLEWAIKEYSLMEIDTSFFQNMDGKELCKMNKEDFQRATTLYNTEVLLSHLSYLRES [L61Q],0.009 ± 0.1

row,Variant,abundance fitness
1,NMTTNERRVIVPADPTLWTQEHVRQWLEWAIKEYSLMEIDTSFFQNMDGKELCKMNKEDFKRATTLYNTEVLLSHLSYLRES [L61K],-0.335 ± 0.17
2,NMTTNERRVIVPADPTLWTQEHVRQWLEWAIKEYSLMEIDTSFFQNMDGKELCKMNKEDFPRATTLYNTEVLLSHLSYLRES [L61P],-1.07 ± 0.34
3,NMTTNERRVIVPADPTLWTQEHVRQWLEWAIKEYSLMEIDTSFFQNMDGKELCKMNKEDFTRATTLYNTEVLLSHLSYLRES [L61T],-0.025 ± 0.13
4,NMTTNERRVIVPADPTLWTQEHVRQWLEWAIKEYSLMEIDTSFFQNMDGKELCKMNKEDFIRATTLYNTEVLLSHLSYLRES [L61I],-0.268 ± 0.12
5,NMTTNERRVIVPADPTLWTQEHVRQWLEWAIKEYSLMEIDTSFFQNMDGKELCKMNKEDFDRATTLYNTEVLLSHLSYLRES [L61D],-0.449 ± 0.22
6,NMTTNERRVIVPADPTLWTQEHVRQWLEWAIKEYSLMEIDTSFFQNMDGKELCKMNKEDFMRATTLYNTEVLLSHLSYLRES [L61M],-0.123 ± 0.15
7,NMTTNERRVIVPADPTLWTQEHVRQWLEWAIKEYSLMEIDTSFFQNMDGKELCKMNKEDFVRATTLYNTEVLLSHLSYLRES [L61V],-0.13 ± 0.05
8,NMTTNERRVIVPADPTLWTQEHVRQWLEWAIKEYSLMEIDTSFFQNMDGKELCKMNKEDFWRATTLYNTEVLLSHLSYLRES [L61W],-0.04 ± 0.081
9,NMTTNERRVIVPADPTLWTQEHVRQWLEWAIKEYSLMEIDTSFFQNMDGKELCKMNKEDFERATTLYNTEVLLSHLSYLRES [L61E],-0.16 ± 0.093
10,NMTTNERRVIVPADPTLWTQEHVRQWLEWAIKEYSLMEIDTSFFQNMDGKELCKMNKEDFLIATTLYNTEVLLSHLSYLRES [R62I],-0.728 ± 0.43
11,NMTTNERRVIVPADPTLWTQEHVRQWLEWAIKEYSLMEIDTSFFQNMDGKELCKMNKEDFLNATTLYNTEVLLSHLSYLRES [R62N],-0.021 ± 0.16
12,NMTTNERRVIVPADPTLWTQEHVRQWLEWAIKEYSLMEIDTSFFQNMDGKELCKMNKEDFLGATTLYNTEVLLSHLSYLRES [R62G],-0.016 ± 0.079
13,NMTTNERRVIVPADPTLWTQEHVRQWLEWAIKEYSLMEIDTSFFQNMDGKELCKMNKEDFLEATTLYNTEVLLSHLSYLRES [R62E],-0.01 ± 0.082
14,NMTTNERRVIVPADPTLWTQEHVRQWLEWAIKEYSLMEIDTSFFQNMDGKELCKMNKEDFLPATTLYNTEVLLSHLSYLRES [R62P],-0.213 ± 0.09
15,NMTTNERRVIVPADPTLWTQEHVRQWLEWAIKEYSLMEIDTSFFQNMDGKELCKMNKEDFLAATTLYNTEVLLSHLSYLRES [R62A],-0.159 ± 0.097
16,NMTTNERRVIVPADPTLWTQEHVRQWLEWAIKEYSLMEIDTSFFQNMDGKELCKMNKEDFLFATTLYNTEVLLSHLSYLRES [R62F],-0.327 ± 0.2
17,NMTTNERRVIVPADPTLWTQEHVRQWLEWAIKEYSLMEIDTSFFQNMDGKELCKMNKEDFLWATTLYNTEVLLSHLSYLRES [R62W],-0.325 ± 0.12
18,NMTTNERRVIVPADPTLWTQEHVRQWLEWAIKEYSLMEIDTSFFQNMDGKELCKMNKEDFLQATTLYNTEVLLSHLSYLRES [R62Q],0.071 ± 0.1
19,NMTTNERRVIVPADPTLWTQEHVRQWLEWAIKEYSLMEIDTSFFQNMDGKELCKMNKEDFLVATTLYNTEVLLSHLSYLRES [R62V],0.066 ± 0.072
20,NMTTNERRVIVPADPTLWTQEHVRQWLEWAIKEYSLMEIDTSFFQNMDGKELCKMNKEDFLCATTLYNTEVLLSHLSYLRES [R62C],-0.23 ± 0.26
21,NMTTNERRVIVPADPTLWTQEHVRQWLEWAIKEYSLMEIDTSFFQNMDGKELCKMNKEDFLKATTLYNTEVLLSHLSYLRES [R62K],0.087 ± 0.15
22,NMTTNERRVIVPADPTLWTQEHVRQWLEWAIKEYSLMEIDTSFFQNMDGKELCKMNKEDFLDATTLYNTEVLLSHLSYLRES [R62D],-0.4 ± 0.21
23,NMTTNERRVIVPADPTLWTQEHVRQWLEWAIKEYSLMEIDTSFFQNMDGKELCKMNKEDFLSATTLYNTEVLLSHLSYLRES [R62S],0.017 ± 0.059

row,Variant,abundance fitness
1,NMTTNERRVIVPADPTLWTQEHVRQWLEWAIKEYSLMEIDTSFFQNMDGKELCKMNKEDFLLATTLYNTEVLLSHLSYLRES [R62L],0.007 ± 0.055
2,NMTTNERRVIVPADPTLWTQEHVRQWLEWAIKEYSLMEIDTSFFQNMDGKELCKMNKEDFLHATTLYNTEVLLSHLSYLRES [R62H],-0.073 ± 0.18
3,NMTTNERRVIVPADPTLWTQEHVRQWLEWAIKEYSLMEIDTSFFQNMDGKELCKMNKEDFLTATTLYNTEVLLSHLSYLRES [R62T],-0.117 ± 0.11
4,NMTTNERRVIVPADPTLWTQEHVRQWLEWAIKEYSLMEIDTSFFQNMDGKELCKMNKEDFLRAPTLYNTEVLLSHLSYLRES [T64P],-0.704 ± 0.18
5,NMTTNERRVIVPADPTLWTQEHVRQWLEWAIKEYSLMEIDTSFFQNMDGKELCKMNKEDFLRAITLYNTEVLLSHLSYLRES [T64I],-0.793 ± 0.46
6,NMTTNERRVIVPADPTLWTQEHVRQWLEWAIKEYSLMEIDTSFFQNMDGKELCKMNKEDFLRANTLYNTEVLLSHLSYLRES [T64N],-0.531 ± 0.28
7,NMTTNERRVIVPADPTLWTQEHVRQWLEWAIKEYSLMEIDTSFFQNMDGKELCKMNKEDFLRAKTLYNTEVLLSHLSYLRES [T64K],-0.796 ± 0.27
8,NMTTNERRVIVPADPTLWTQEHVRQWLEWAIKEYSLMEIDTSFFQNMDGKELCKMNKEDFLRALTLYNTEVLLSHLSYLRES [T64L],-0.262 ± 0.11
9,NMTTNERRVIVPADPTLWTQEHVRQWLEWAIKEYSLMEIDTSFFQNMDGKELCKMNKEDFLRAGTLYNTEVLLSHLSYLRES [T64G],-0.126 ± 0.14
10,NMTTNERRVIVPADPTLWTQEHVRQWLEWAIKEYSLMEIDTSFFQNMDGKELCKMNKEDFLRACTLYNTEVLLSHLSYLRES [T64C],-0.505 ± 0.27
11,NMTTNERRVIVPADPTLWTQEHVRQWLEWAIKEYSLMEIDTSFFQNMDGKELCKMNKEDFLRAETLYNTEVLLSHLSYLRES [T64E],-0.792 ± 0.34
12,NMTTNERRVIVPADPTLWTQEHVRQWLEWAIKEYSLMEIDTSFFQNMDGKELCKMNKEDFLRAATLYNTEVLLSHLSYLRES [T64A],-0.404 ± 0.12
13,NMTTNERRVIVPADPTLWTQEHVRQWLEWAIKEYSLMEIDTSFFQNMDGKELCKMNKEDFLRAMTLYNTEVLLSHLSYLRES [T64M],-0.02 ± 0.15
14,NMTTNERRVIVPADPTLWTQEHVRQWLEWAIKEYSLMEIDTSFFQNMDGKELCKMNKEDRLRATTLYNTEVLLSHLSYLRES [F60R],-1 ± 0.17
15,NMTTNERRVIVPADPTLWTQEHVRQWLEWAIKEYSLMEIDTSFFQNMDGKELCKMNKEDWLRATTLYNTEVLLSHLSYLRES [F60W],-0.114 ± 0.08
16,NMTTNERRVIVPADPTLWTQEHVRQWLEWAIKEYSLMEIDTSFFQNMDGKELCKMNKEDVLRATTLYNTEVLLSHLSYLRES [F60V],-0.433 ± 0.089
17,NMTTNERRVIVPADPTLWTQEHVRQWLEWAIKEYSLMEIDTSFFQNMDGKELCKMNKEDPLRATTLYNTEVLLSHLSYLRES [F60P],-0.921 ± 0.11
18,NMTTNERRVIVPADPTLWTQEHVRQWLEWAIKEYSLMEIDTSFFQNMDGKELCKMNKEDYLRATTLYNTEVLLSHLSYLRES [F60Y],0.152 ± 0.16
19,NMTTNERRVIVPADPTLWTQEHVRQWLEWAIKEYSLMEIDTSFFQNMDGKELCKMNKEDSLRATTLYNTEVLLSHLSYLRES [F60S],-0.881 ± 0.43
20,NMTTNERRVIVPADPTLWTQEHVRQWLEWAIKEYSLMEIDTSFFQNMDGKELCKMNKEDTLRATTLYNTEVLLSHLSYLRES [F60T],-0.918 ± 0.26
21,NMTTNERRVIVPADPTLWTQEHVRQWLEWAIKEYSLMEIDTSFFQNMDGKELCKMNKEDQLRATTLYNTEVLLSHLSYLRES [F60Q],-0.938 ± 0.35
